Assay results reported in article PMC1636342.
Like-named read-outs stand apart in the source and are kept apart here.

Key:
Experiment in all cases: tryptophan fluorescence quenching
Bs-CspB [1] = biological target: T1, Bs-CspB (Bacillus subtilis, UniProt P32081 1-67)
Bs-CspB [2] = biological target: T1, Bs-CspB; remark: listed apart in the source
Bs-CspB [3] = biological target: T1, Bs-CspB; remark: listed apart in the source
Bs-CspB [4] = biological target: T1, Bs-CspB; remark: listed apart in the source
Bs-CspB [5] = biological target: T1, Bs-CspB; remark: listed apart in the source
Bs-CspB [6] = biological target: T1, Bs-CspB; remark: listed apart in the source
Bs-CspB [7] = biological target: T1, Bs-CspB; remark: listed apart in the source
Bs-CspB K7A = Bs-CspB K7A (Bacillus subtilis, UniProt P32081 1-67, K7A)
Bs-CspB F38A = Bs-CspB F38A (Bacillus subtilis, UniProt P32081 1-67, F38A)
Bs-CspB H29Q = Bs-CspB H29Q (Bacillus subtilis, UniProt P32081 1-67, H29Q)
Bs-CspB K13Q = Bs-CspB K13Q (Bacillus subtilis, UniProt P32081 1-67, K13Q)
Bs-CspB Q59A = Bs-CspB Q59A (Bacillus subtilis, UniProt P32081 1-67, Q59A)
Bs-CspB G54P = Bs-CspB G54P (Bacillus subtilis, UniProt P32081 1-67, G54P)
Bs-CspB P58A = Bs-CspB P58A (Bacillus subtilis, UniProt P32081 1-67, P58A)
Bs-CspB F15Y = Bs-CspB F15Y (Bacillus subtilis, UniProt P32081 1-67, F15Y)
Bs-CspB G54A = Bs-CspB G54A (Bacillus subtilis, UniProt P32081 1-67, G54A)
Bs-CspB F30W = Bs-CspB F30W (Bacillus subtilis, UniProt P32081 1-67, F30W)
Bs-CspB G35A = Bs-CspB G35A (Bacillus subtilis, UniProt P32081 1-67, G35A)
Bs-CspB G35P = Bs-CspB G35P (Bacillus subtilis, UniProt P32081 1-67, G35P)
Bs-CspB F30A = Bs-CspB F30A (Bacillus subtilis, UniProt P32081 1-67, F30A)
Bs-CspB R56A = Bs-CspB R56A (Bacillus subtilis, UniProt P32081 1-67, R56A)
Bs-CspB F17A = Bs-CspB F17A (Bacillus subtilis, UniProt P32081 1-67, F17A)
Bs-CspB F27A = Bs-CspB F27A (Bacillus subtilis, UniProt P32081 1-67, F27A)
Bs-CspB F15A = Bs-CspB F15A (Bacillus subtilis, UniProt P32081 1-67, F15A)
Bs-CspB D25A = Bs-CspB D25A (Bacillus subtilis, UniProt P32081 1-67, D25A)

B1: CTCTCTC (ssDNA)
DNA: CTCTCTC
For B1, the Kd (Bs-CspB [1]) was 0.0108 ± 0.0009 µM.

B2: dcb2_b (ssDNA)
DNA: GAGTTTTGGTCTTGAA
B2 showed a Kd (Bs-CspB [2]) of 0.043 ± 0.002 µM.

B3: CTCTTCC (ssDNA)
DNA: CTCTTCC
With B3 the Kd (Bs-CspB [1]) was 0.0662 ± 0.0048 µM.

B4: Y-box7 (ssDNA)
DNA: TATTGGT
B4 gave a Kd (Bs-CspB [3]) of 0.53 ± 0.05 µM.

B5: dT6 (ssDNA)
DNA: TTTTTT
For B5, the Kd (Bs-CspB [4]) was 0.326 ± 0.02 µM.

B6: Y-box5 (ssDNA)
DNA: ATTGG
In the case of B6, the Kd (Bs-CspB [4]) is reported as 5.3 ± 1 µM.

B7: dcb2_br (ssDNA)
DNA: AAGTTCTGGTTTTGAG
In the case of B7, the Kd (Bs-CspB [2]) is reported as 0.03 ± 0.002 µM.

B8: CTCTTTC (ssDNA)
DNA: CTCTTTC
Binder B8 has a Kd (Bs-CspB [1]) of 0.0039 ± 0.0002 µM.

B9: dcb1 (ssDNA)
DNA: TTATTAG
With B9 the Kd (Bs-CspB [4]) was 0.02 ± 0.003 µM.

B10: dcb2ds_13 (ssDNA)
DNA: GTTTTGTAAGAGT
For B10, the Kd (Bs-CspB [2]) was 0.066 ± 0.021 µM.

B11: Y-box25 (ssDNA)
DNA: ATCCTACTGATTGGCCCAGGTGCTG
B11 was tested, and the Kd (Bs-CspB [5]) was 3.92 ± 0.045 µM.

B12: dcb1_a (ssDNA)
DNA: ATTATTTTTGTTC
B12 was tested, and the Kd (Bs-CspB [2]) was 0.044 ± 0.002 µM.

B13: dcb1_br (ssDNA)
DNA: GGATAAGAACGAG
Work on B13 yielded a Kd (Bs-CspB [2]) of 1.09 ± 0.11 µM.

B14: dcb2_a (ssDNA)
DNA: TTTAAGAAGAAAGTTTT
B14 was tested, and the Kd (Bs-CspB [2]) was 0.46 ± 0.034 µM.

B15: CTCCTTC (ssDNA)
DNA: CTCCTTC
Binder B15 has a Kd (Bs-CspB [1]) of 0.0125 ± 0.0006 µM.

B16: dcb1_b (ssDNA)
DNA: GAGCAAGAATAGG
In the case of B16, the Kd (Bs-CspB [2]) is reported as 1.16 ± 0.09 µM.

B17: CTTTTTC (ssDNA)
DNA: CTTTTTC
B17 was tested, and the Kd (Bs-CspB [1]) was 0.0337 ± 0.0041 µM.

B18: dC6 (ssDNA)
DNA: CCCCCC
With B18 the Kd (Bs-CspB [4]) was 12.6 ± 1 µM.

B19: Y-box12 (ssDNA)
DNA: CTGATTGGCCAA
B19 showed a Kd (Bs-CspB [6]) of 2.03 ± 0.39 µM.

B20: dT7 (ssDNA)
DNA: TTTTTTT
B20 gave a Kd (Bs-CspB [7]) of 0.0018 ± 0.0004 µM, a Kd (Bs-CspB K7A) of 0.0064 ± 0.0006 µM and a Kd (Bs-CspB F38A) of 0.228 ± 0.009 µM. The Kd (Bs-CspB H29Q) was 0.104 ± 0.006 µM, the Kd (Bs-CspB K13Q) was 0.025 ± 0.003 µM and the Kd (Bs-CspB Q59A) was 0.0027 ± 0.0004 µM. The Kd (Bs-CspB G54P) was 0.22 ± 0.009 µM, the Kd (Bs-CspB P58A) was 0.0013 ± 0.0002 µM and the Kd (Bs-CspB F15Y) was 0.0014 ± 0.0004 µM. For the same binder, the Kd (Bs-CspB G54A) was 0.0013 ± 0.0003 µM, the Kd (Bs-CspB F30W) was 0.0013 ± 0.0003 µM and the Kd (Bs-CspB G35A) was 0.0011 ± 0.0003 µM. It also gave a Kd (Bs-CspB G35P) of 0.118 ± 0.005 µM, a Kd (Bs-CspB F30A) of 0.208 ± 0.011 µM and a Kd (Bs-CspB R56A) of 0.0118 ± 0.0014 µM. It also gave a Kd (Bs-CspB F17A) of 0.345 ± 0.063 µM, a Kd (Bs-CspB F27A) of 0.286 ± 0.007 µM and a Kd (Bs-CspB F15A) of 0.135 ± 0.004 µM. The Kd (Bs-CspB D25A) was 0.0214 ± 0.0005 µM.
